The values that follow come from US20200055930A1 (Pfizer, published 2020).

The target of the assay is T1, Mouse Fc-human GDF15 (Mu IgG1Fc_Fxa_Hu GDF15) (human (GDF15 part)).
T1 construct: Whole fusion entry; also called Murine dimeric IgG1 Fc-human GDF-15 with FXa cleavage site; control human GDF15
T1 chain: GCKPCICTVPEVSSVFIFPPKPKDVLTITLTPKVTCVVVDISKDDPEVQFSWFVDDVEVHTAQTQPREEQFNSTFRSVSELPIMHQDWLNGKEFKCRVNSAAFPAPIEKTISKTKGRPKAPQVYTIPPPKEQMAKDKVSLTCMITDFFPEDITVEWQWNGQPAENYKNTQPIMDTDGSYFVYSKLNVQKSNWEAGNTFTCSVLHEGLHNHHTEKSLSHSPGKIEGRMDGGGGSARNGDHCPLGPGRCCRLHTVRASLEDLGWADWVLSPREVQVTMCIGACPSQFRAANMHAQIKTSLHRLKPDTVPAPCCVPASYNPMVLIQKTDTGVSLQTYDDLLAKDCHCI
In words: SPR BIAcore T200 37C; Fc-GDF15 captured, IgG analyte. As to the method: Mouse Fc-human GDF15 (Mu IgG1Fc_Fxa_Hu GDF15; SEQ ID NO:2), Mouse Fc-mouse GDF15 (Mu IgG1Fc_Fxa_Mu GDF15; SEQ ID NO:5) and Mouse Fc-cynomolgus monkey GDF15 (Mu IgG1Fc_Fxa_Cyno GDF15; SEQ ID NO:4) were captured onto three different flow cells of a CM4 sensorchip (catalogue number BR100534, GE Healthcare) surface using the Mouse Antibody Capture Kit (BR100838, GE Healthcare) according to the manufacturer's protocol. The running and sample buffer was 10 mM HEPES pH 7.4, 0.15M NaCl, 3 mM EDTA, 0.05% P-20 (HBS-EP+). The final capture levels of Mu IgG1Fc_Fxa_Hu GDF15, Mu IgG1Fc_Fxa_Mu GDF15 and Mu IgG1Fc_Fxa_Cyno GDF15 were 40 resonance units (RU), 32 RU and 25 RU respectively. Flow cell 1 was used as a reference flow cell. […] The dissociation was monitored for 2.8 hours and the surface was regenerated with 10 mM Glycine pH 1.7. Binding affinities and rate constants were determined for murine and cynomolgus monkey GDF15 by fitting the resulting sensorgram data to a 1:1 Langmuir model in BIAcore T200 Evaluation software version 2.0 (GE Healthcare). […]
A general note: Surface plasmon resonance follows binding to a sensor surface in real time, without labels.

Where “and” joins values, the source holds several entries; their conditions need not be identical. Identical values can stand only once.

B1: GDF15_014 (antibody, human IgG1, kappa, V domains shown)
VH: QVQLVQSGAEVKKPGSSVKVSCKASGYTFSSYNIDWVRQAPGQGLEWMGQINPINGLAFYNQKFQGRVTITADESTSTAYMELSSLRSEDTAVYYCAREAITTVGAMDYWGQGTLVTVSS
VL: EIVLTQSPATLSLSPGERATLSCRTSQNVHNYLAWYQQKPGQAPRLLIYDASNRATGIPARFSGSGSGTDFTLTISSLEPEDFAVYYCQQFWSDPYTFGQGTKVEIKR
notes: Tested in bivalent format
B1: the T½ is 10.7 h and 13 h.

B2: GDF15_021 (antibody, human IgG1, kappa, V domains shown)
VH: QVQLVQSGAEVKKPGSSVKVSCKASGYTFSSYNIDWVRQAPGQGLEWMGGINPINGLIFFNQKFQGRVTITADESTSTAYMELSSLRSEDTAVYYCAREAITTVGAMDHWGQGTLVTVSS
VL: EIVLTQSPATLSLSPGERATLSCRTSENVHSYLAWYQQKPGQAPRLLIYDASNLADGIPARFSGSGSGTDFTLTISSLEPEDFAVYYCQQFWSDPYTFGQGTKVEIKR
notes: Tested in bivalent format
Turning to B2, the T½ is 0.661 h and 0.547 h.

B3: GDF15_013 (antibody, human IgG1, kappa, V domains shown)
VH: QVQLVQSGAEVKKPGSSVKVSCKASGYTFSDYNMDWVRQAPGQGLEWMGGINPNNGLAFYNQKFQGRVTITADESTSTAYMELSSLRSEDTAVYYCAREAITTVGAMDYWGQGTLVTVSS
VL: EIVLTQSPATLSLSPGERATLSCRTSESVHSYLAWYQQKPGQAPRLLIYDASNRATGIPARFSGSGSGTDFTLTISSLEPEDFAVYYCQQFWNWPWTFGQGTKVEIKR
notes: Tested in bivalent format
Regarding B3, the T½ was 2.89 h and 2.56 h.

B4: GDF15_015 (antibody, human IgG1, kappa, V domains shown)
VH: QVQLVQSGAEVKKPGSSVKVSCKASGYTFSDYNMDWVRQAPGQGLEWMGQINPNNGLAFYNQKFQGRVTITADESTSTAYMELSSLRSEDTAVYYCAREAITTVGATDYWGQGTLVTVSS
VL: EIVLTQSPATLSLSPGERATLSCRTSQNVHSYLAWYQQKPGQAPRLLIYDASNLADGIPARFSGSGSGTDFTLTISSLEPEDFAVYYCQQFSNDPWTFGQGTKVEIKR
notes: Tested in bivalent format
B4: the T½ was 1.94 h and 1.86 h.

B5: GDF15_017 (antibody, human IgG1, kappa, V domains shown)
VH: QVQLVQSGAEVKKPGSSVKVSCKASGYTFTDYNIDWVRQAPGQGLEWMGQINPNNGLAFYNQKFQGRVTITADESTSTAYMELSSLRSEDNAVYYCAREAITTVGAMDYWGQGTLVTVSS
VL: EIVLTQSPATLSLSPGERATLSCRTSQSVHSYLAWYQQKPGQAPRLLIYDAKTRATGIPARFSGSGSGTDFTLTISSLEPEDFAVYYCQQFSSDPYTFGQGTKVEIKR
notes: Tested in bivalent format
As to B5, the T½ is 2.35 h and 2.22 h.

B6: GDF15_010 (antibody, human IgG1, kappa, V domains shown)
VH: QVQLVQSGAEVKKPGSSVKVSCKASGYTFSDYNIDWVRQAPGQGLEWMGGINPNNGLAFFNQKFQGRVTITADESTSTAYMELSSLRSEDTAVYYCAREAITTVGAMDYWGQGTLVTVSS
VL: EIVLTQSPATLSLSPGERATLSCRTSQSLHSYLAWYQQKPGQAPRLLIYDASNRATGIPARFSGSGSGTDFTLTISSLEPEDFAVYYCQQFWNDPWTFGQGTKVEIKR
notes: Tested in bivalent format
B6: the T½ was 13.1 h and 10.8 h.

B7: GDF15_022 (antibody, human IgG1, kappa, V domains shown)
VH: QVQLVQSGAEVKKPGSSVKVSCKASGYTFSDYNIDWVRQAPGQGLEWMGQINPNNGLIFFNQKFQGRVTITADESTSTAYMELSSLRSEDTAVYYCAREVITTVGAMDYWGQGTLVTVSS
VL: EIVLTQSPATLSLSPGERATLSCRTSQSVHSYLAWYQQKPGQAPRLLIYDAKTRADGIPARFSGSGSGTDFTLTISSLEPEDFAVYYCQQFSSDPYTFGQGTKVEIKR
notes: Tested in bivalent format
In the case of B7, the T½ was 10.9 h and 13.3 h.

B8: GDF15_003 (antibody, human IgG1, kappa, V domains shown)
VH: QVQLVQSGAEVKKPGSSVKVSCKASGYTFTSYNIDWVRQAPGQGLEWMGQINPNNGLAFYNQKFQGRVTITADESTSTAYMELSSLRSEDTAVYYCAREQITTVGAMDYWGQGTLVTVSS
VL: EIVLTQSPATLSLSPGERATLSCRASQSLSSYLAWYQQKPGQAPRLLIYDAKNRADGIPARFSGSGSGTDFTLTISSLEPEDFAVYYCQQFSSDPYTFGQGTKVEIKR
notes: Tested in bivalent format
As for B8, the T½ was 2.67 h and 2.1 h.

B9: GDF15_020 (antibody, human IgG1, kappa, V domains shown)
VH: QVQLVQSGAEVKKPGSSVKVSCKASGYTFSDYNMDWVRQAPGQGLEWMGQINPNNGLANYNQKFQGRVTITADESTSTAYMELSSLRSEDTAVYYCAREAITTVGAMDYWGQGTLVTVSS
VL: EIVLTQSPATLSLSPGERATLSCRASQNLHSYLAWYQQKPGQAPRLLIYDASTRADGIPARFSGSGSGTDFTLTISSLEPEDFAVYYCQQFWSDPYTFGQGTKVEIKR
notes: Tested in bivalent format
With B9, the T½ is 2.03 h and 1.7 h.

B10: GDF15_004 (antibody, human IgG1, kappa, V domains shown)
VH: QVQLVQSGAEVKKPGSSVKVSCKASGYTFSSYNIDWVRQAPGQGLEWMGQINPNNGLANYAQKFQGRVTITADESTSTAYMELSSLRSEDTAVYYCAREAITTIGAMDYWGQGTLVTVSS
VL: EIVLTQSPATLSLSPGERATLSCRTSESVHSYLAWYQQKPGQAPRLLIYDASTRADGIPARFSGSGSGTDFTLTISSLEPEDFAVYYCQQFWSDPYTFGQGTKVEIKR
notes: Tested in bivalent format
Regarding B10, the T½ was 2.7 h and 2.35 h.

B11: GDF15_0297 (antibody, mouse IgG1, kappa, V domains shown)
VH: QVQLQQPGAELVKPGASVKMSCKASGYPFEGWYIHWVKQRPGQGLEWMGWNNPRTGLTNHAQKFQGKVTMTRDTSSSTAYMQLSSLTSEDSAVYYCARGVGADAAFDIWGQGTTLTVSS
VL: DIVMTQSPSSLSVSAGEKVTMSCRSSQSLLWKHGYNYLDWYQQKPGQPPKLLIYLDRNRAHGVPDRFTGSGSGTDFTLTISSVQAEDLAVYYCMQSFETPITFGGGTKLEIKR
notes: also called GDF15_297; GDF_0297
On to B11, for which the T½ is 17.7 h and 14.9 h.

B12: GDF15_0470 (antibody, human IgG1, kappa, V domains shown)
VH: QVQLVQSGAEVKKPGASVKVSCKASGYPFEGWYIHWVRQAPGQGLEWMGWNNPRTGLTNHAQKFQGRVTMTRDTSISTAYMELSRLRSDDTAVYYCARGVGADAAFDIWGQGTMVTVSS
VL: EIVLTQSPATLSLSPGERATLSCRSSQSLLWKHGYNYLDWYQQKPGQAPRLLIYLDRNRAHGIPARFSGSGSGTDFTLTISSLEPEDFAVYYCMQSFETPITFGQGTKVEIKR
notes: Tested in bivalent format; also called GDF15-470
As for B12, the T½ is 3.7 h and 4.47 h.
